From the supplement of paper PMC10065799, “High-throughput profiling of sequence recognition by tyrosine kinases and SH2 domains using bacterial peptide display” (eLife, 2023)

Legend:
Grb2 SH2 = Grb2 SH2 (UniProt P62993); assay: SH2 binding enrichment of the phosphorylated peptide, bacterial display (enrichment ratio); higher = better substrate or ligand; peptides without Tyr show the background
c-Src SH2 = assay: as above
SHP2-C SH2 = assay: as above
EPHB1 = EPHB1 (UniProt P54762); assay: phosphorylation enrichment, bacterial display (enrichment ratio); higher = better substrate or ligand; peptides without Tyr show the background
Hck = Hck (UniProt P08631); assay: as above
Jak2 = Jak2 (UniProt O60674); assay: as above
FGFR3 = FGFR3 (UniProt P22607); assay: as above
Fer (mouse) = assay: as above
EPHB2 = EPHB2 (UniProt P29323); assay: as above
Fyn = Fyn (UniProt P06241); assay: as above
Fes = Fes (UniProt P07332); assay: as above
c-Abl (mouse) = assay: as above
MERTK = MERTK (UniProt Q12866); assay: as above
c-Src = assay: as above
FGFR1 = FGFR1 (UniProt P11362); assay: as above
AncSZ = assay: as above
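For SH2 binding enrichment of the phosphorylated peptide, bacterial display in this document: peptide library displayed on the E. coli surface as eCPX fusions, selected cells deep-sequenced, score is each peptide's frequency after selection divided by its frequency in the input.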
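For phosphorylation enrichment, bacterial display in this document: 11-residue human phosphosite peptides and single-mutation variants displayed on the E. coli surface, counted by deep sequencing, each peptide's frequency after selection divided by its frequency in the unselected input library; frequency after pTyr selection over input frequency; kinase dosed for 20-30% of maximal phosphorylation in three min.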

Sequence of FGFR1 (P11362 whole entry, looked up): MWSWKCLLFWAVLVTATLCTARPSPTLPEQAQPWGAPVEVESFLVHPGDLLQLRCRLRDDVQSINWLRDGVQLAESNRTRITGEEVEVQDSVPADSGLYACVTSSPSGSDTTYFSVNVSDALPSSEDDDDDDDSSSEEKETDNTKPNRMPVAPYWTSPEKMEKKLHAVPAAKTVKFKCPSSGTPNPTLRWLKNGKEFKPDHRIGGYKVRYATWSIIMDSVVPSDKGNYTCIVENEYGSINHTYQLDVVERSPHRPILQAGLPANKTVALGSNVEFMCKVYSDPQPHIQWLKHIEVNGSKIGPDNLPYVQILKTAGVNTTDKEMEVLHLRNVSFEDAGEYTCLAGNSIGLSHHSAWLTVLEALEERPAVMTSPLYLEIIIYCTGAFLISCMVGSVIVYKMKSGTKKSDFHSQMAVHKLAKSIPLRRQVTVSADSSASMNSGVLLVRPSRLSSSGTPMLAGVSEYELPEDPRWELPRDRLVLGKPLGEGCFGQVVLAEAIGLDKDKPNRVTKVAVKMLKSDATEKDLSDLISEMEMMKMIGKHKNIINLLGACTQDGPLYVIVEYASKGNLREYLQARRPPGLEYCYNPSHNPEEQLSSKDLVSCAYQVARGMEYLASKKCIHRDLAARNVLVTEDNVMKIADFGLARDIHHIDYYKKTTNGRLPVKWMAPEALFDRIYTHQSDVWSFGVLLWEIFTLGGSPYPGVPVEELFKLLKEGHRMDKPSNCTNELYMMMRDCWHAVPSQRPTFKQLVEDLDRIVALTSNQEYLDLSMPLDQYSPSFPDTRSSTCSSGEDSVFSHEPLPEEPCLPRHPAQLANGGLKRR
Sequence of MERTK (Q12866 whole entry, looked up): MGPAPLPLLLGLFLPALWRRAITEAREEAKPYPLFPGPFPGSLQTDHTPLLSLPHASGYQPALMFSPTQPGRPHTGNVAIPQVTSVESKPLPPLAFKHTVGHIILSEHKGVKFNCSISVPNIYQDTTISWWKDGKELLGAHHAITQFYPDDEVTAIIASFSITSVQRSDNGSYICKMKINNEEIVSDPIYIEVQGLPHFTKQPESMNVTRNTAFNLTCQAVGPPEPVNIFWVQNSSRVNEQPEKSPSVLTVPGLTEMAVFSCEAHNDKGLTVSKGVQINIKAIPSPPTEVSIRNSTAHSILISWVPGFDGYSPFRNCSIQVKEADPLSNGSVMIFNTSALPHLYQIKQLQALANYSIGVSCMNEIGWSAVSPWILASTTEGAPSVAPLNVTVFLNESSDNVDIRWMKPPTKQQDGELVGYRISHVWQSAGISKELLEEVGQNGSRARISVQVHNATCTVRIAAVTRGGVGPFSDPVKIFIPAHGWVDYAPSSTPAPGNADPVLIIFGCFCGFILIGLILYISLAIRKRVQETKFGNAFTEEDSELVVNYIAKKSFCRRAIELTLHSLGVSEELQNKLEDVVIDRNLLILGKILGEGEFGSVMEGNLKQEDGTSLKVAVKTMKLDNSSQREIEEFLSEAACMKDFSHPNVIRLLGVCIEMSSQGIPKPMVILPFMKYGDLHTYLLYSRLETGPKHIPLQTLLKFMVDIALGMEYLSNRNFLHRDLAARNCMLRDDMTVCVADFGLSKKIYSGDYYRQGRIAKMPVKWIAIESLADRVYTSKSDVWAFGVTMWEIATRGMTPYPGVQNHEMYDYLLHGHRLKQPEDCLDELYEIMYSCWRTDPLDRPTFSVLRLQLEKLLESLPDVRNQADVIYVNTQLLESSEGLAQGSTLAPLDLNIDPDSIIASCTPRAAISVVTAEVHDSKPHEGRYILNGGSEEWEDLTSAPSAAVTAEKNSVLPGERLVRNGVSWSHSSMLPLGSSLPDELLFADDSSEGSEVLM
Sequence of Hck (P08631 whole entry, looked up): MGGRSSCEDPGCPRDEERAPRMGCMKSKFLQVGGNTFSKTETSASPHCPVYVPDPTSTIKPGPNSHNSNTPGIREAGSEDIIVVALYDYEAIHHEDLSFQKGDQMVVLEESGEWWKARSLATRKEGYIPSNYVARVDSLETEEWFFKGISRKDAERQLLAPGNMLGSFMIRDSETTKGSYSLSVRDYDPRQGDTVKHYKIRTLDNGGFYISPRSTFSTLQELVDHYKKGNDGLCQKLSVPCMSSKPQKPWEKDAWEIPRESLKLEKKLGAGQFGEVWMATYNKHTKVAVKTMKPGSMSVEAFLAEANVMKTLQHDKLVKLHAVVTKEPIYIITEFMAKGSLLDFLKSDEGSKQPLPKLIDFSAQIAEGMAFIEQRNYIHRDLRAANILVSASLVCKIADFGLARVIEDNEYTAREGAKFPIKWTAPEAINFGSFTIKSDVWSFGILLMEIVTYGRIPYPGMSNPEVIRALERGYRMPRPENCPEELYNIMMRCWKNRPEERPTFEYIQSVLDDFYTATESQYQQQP
Sequence of EPHB1 (P54762 whole entry, looked up): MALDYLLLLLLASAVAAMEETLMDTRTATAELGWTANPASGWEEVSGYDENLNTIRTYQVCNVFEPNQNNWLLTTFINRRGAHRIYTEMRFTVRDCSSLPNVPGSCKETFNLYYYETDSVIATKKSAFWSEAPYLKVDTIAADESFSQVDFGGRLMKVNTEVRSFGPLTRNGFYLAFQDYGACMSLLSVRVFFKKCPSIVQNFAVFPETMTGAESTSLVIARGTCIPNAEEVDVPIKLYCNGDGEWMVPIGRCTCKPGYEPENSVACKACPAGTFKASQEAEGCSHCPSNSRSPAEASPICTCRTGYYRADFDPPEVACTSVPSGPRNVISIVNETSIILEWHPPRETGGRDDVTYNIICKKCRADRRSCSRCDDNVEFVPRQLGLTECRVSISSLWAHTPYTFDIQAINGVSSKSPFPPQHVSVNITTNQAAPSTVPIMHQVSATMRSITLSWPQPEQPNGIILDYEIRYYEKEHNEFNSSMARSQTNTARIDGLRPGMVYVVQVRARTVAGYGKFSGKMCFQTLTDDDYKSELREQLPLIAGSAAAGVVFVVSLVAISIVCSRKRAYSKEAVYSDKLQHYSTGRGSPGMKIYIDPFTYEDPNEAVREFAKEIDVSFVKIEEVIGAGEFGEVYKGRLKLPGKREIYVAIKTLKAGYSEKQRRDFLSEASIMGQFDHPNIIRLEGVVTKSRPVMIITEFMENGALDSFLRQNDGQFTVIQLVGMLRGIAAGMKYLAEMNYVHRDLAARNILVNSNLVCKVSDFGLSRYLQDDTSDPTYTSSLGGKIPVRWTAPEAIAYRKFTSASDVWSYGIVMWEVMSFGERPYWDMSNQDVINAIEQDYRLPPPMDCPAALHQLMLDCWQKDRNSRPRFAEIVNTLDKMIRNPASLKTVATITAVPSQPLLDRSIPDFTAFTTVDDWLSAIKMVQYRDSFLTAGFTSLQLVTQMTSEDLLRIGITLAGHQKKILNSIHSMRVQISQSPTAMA
Sequence of Fes (P07332 whole entry, looked up): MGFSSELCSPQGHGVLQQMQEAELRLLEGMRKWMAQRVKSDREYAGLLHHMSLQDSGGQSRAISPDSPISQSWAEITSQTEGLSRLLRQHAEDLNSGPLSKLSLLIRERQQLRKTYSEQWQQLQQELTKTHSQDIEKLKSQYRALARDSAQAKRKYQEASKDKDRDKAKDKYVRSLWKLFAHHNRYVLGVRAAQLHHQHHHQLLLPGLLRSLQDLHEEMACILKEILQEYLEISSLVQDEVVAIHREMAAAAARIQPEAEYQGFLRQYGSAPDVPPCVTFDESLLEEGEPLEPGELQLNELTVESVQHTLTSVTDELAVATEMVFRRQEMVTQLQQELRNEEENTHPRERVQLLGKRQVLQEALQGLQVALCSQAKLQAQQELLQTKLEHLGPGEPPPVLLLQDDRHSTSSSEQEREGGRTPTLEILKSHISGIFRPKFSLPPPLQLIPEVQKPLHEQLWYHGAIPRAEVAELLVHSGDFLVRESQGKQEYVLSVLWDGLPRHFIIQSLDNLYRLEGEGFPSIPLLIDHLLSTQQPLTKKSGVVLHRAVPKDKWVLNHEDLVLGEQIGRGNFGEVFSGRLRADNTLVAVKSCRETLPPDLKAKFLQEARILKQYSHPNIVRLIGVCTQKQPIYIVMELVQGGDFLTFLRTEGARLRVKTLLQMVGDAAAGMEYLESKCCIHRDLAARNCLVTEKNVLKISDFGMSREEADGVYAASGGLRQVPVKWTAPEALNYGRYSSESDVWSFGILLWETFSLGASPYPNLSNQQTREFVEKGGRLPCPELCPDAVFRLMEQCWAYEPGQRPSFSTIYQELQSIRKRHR
Sequence of Fyn (P06241 whole entry, looked up): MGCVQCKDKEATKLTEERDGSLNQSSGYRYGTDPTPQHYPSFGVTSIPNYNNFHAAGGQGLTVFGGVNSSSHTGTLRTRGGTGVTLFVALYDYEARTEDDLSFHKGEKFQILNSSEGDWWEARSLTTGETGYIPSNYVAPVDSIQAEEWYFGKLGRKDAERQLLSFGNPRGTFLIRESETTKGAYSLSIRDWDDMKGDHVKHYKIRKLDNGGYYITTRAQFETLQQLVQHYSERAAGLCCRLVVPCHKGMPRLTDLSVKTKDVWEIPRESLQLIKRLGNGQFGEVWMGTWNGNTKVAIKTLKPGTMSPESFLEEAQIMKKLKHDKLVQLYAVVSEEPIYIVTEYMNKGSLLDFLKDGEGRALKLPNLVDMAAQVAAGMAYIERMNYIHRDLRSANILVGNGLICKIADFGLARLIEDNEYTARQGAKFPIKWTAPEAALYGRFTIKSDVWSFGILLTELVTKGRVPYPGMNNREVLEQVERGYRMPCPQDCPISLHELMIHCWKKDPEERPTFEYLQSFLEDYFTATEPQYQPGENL

| SH2 binding enrichment (Grb2 SH2) | SH2 binding enrichment (c-Src SH2) | SH2 binding enrichment (SHP2-C SH2) | Sequence | phosphorylation enrichment (EPHB1) | phosphorylation enrichment (Hck) | phosphorylation enrichment (Jak2) | phosphorylation enrichment (FGFR3) | phosphorylation enrichment (Fer (mouse)) | phosphorylation enrichment (EPHB2) | phosphorylation enrichment (Fyn) | phosphorylation enrichment (Fes) | phosphorylation enrichment (c-Abl (mouse)) | phosphorylation enrichment (MERTK) | phosphorylation enrichment (c-Src) | phosphorylation enrichment (FGFR1) | phosphorylation enrichment (AncSZ) |
| --- | --- | --- | --- | --- | --- | --- | --- | --- | --- | --- | --- | --- | --- | --- | --- | --- |
| 0.965 | 3.68 | 0.776 | QGGRRYMMIVD [GAA_Y438] | 0.487 | 0.354 | 0.568 | 0.367 | 0.692 | 0.508 | 0.655 | 0.574 | 0.543 | 0.42 | 0.403 | 0.413 | 0.606 |
| 1.16 | 0.945 | 0.936 | QGIFGYHHHMQ [UFSP2_Y287_Y290H_YF] | 0.639 | 0.664 | 1.07 | 0.792 | 0.779 | 0.781 | 0.395 | 1.04 | 0.652 | 0.521 | 0.498 | 0.892 | 0.941 |
| 0.886 | 0.483 | 0.638 | QHVPDYRQNVY [PCDHGA1_Y890] | 0.544 | 0.665 | 0.76 | 0.626 | 0.517 | 0.563 | 0.673 | 0.829 | 0.66 | 0.478 | 0.723 | 0.497 | 0.742 |
| 0.958 | 0.607 | 0.813 | QKINKYLTVPA [SLC9A1_Y683_N682K] | 0.282 | 0.356 | 0.588 | 0.854 | 0.567 | 0.67 | 0.461 | 0.625 | 0.462 | 0.52 | 0.762 | 0.659 | 1.77 |
| 1.09 | 0.498 | 0.778 | QKMLDYLKEKK [RYR2_Y3780] | 0.401 | 0.491 | 0.579 | 0.673 | 0.442 | 0.345 | 0.542 | 1.1 | 0.533 | 0.398 | 0.513 | 0.553 | 0.9 |
| 0.853 | 0.369 | 1.21 | QKNVSYVSRVS [TASOR_Y1043_T1046R] | 0.683 | 0.477 | 0.69 | 0.894 | 0.764 | 0.564 | 0.438 | 0.739 | 0.547 | 0.537 | 0.457 | 0.782 | 1.2 |
| 0.861 | 0.541 | 0.784 | QLCVSYPGGYT [PROS1_Y259_N258S] | 0.588 | 0.416 | 0.862 | 0.665 | 0.591 | 0.719 | 0.597 | 0.888 | 0.683 | 0.402 | 0.4 | 0.592 | 1.03 |
| 0.893 | 0.42 | 0.76 | QMQAAYQKAVA [HBD_Y131_V134A] | 0.583 | 0.449 | 0.635 | 0.508 | 0.405 | 0.292 | 0.47 | 0.798 | 0.451 | 0.368 | 0.307 | 0.652 | 0.576 |
| 0.897 | 0.687 | 0.625 | QNAGDYYDLYG [PTPN11_Y62_T59A] | 15.5 | 5.32 | 3.1 | 20.3 | 1.56 | 13.6 | 5.41 | 1.25 | 1.04 | 3 | 4.65 | 19.5 | 4.8 |
| 0.924 | 0.558 | 0.564 | QNTADYFDLFG [PTPN11_Y62_G60A_YF] | 15.8 | 0.722 | 6.89 | 16.9 | 0.951 | 13.8 | 1.32 | 1.53 | 1.13 | 0.691 | 0.693 | 17.9 | 5.82 |

Second part, the sequence before the results:

| Sequence | SH2 binding enrichment (Grb2 SH2) | SH2 binding enrichment (c-Src SH2) | SH2 binding enrichment (SHP2-C SH2) | phosphorylation enrichment (EPHB1) | phosphorylation enrichment (Hck) | phosphorylation enrichment (Jak2) | phosphorylation enrichment (FGFR3) | phosphorylation enrichment (Fer (mouse)) | phosphorylation enrichment (EPHB2) | phosphorylation enrichment (Fyn) | phosphorylation enrichment (Fes) | phosphorylation enrichment (c-Abl (mouse)) | phosphorylation enrichment (MERTK) | phosphorylation enrichment (c-Src) | phosphorylation enrichment (FGFR1) | phosphorylation enrichment (AncSZ) |
| --- | --- | --- | --- | --- | --- | --- | --- | --- | --- | --- | --- | --- | --- | --- | --- | --- |
| QFNIQYSSSAA [ERBB2IP_Y981_YF] | 0.705 | 0.557 | 0.623 | 0.51 | 0.673 | 0.935 | 0.661 | 0.458 | 0.542 | 0.485 | 1.31 | 1.01 | 0.962 | 0.633 | 0.832 | 1.11 |
| QGFDTYFGYLL [ARSB_Y165_R160Q] | 0.596 | 0.327 | 0.561 | 5.42 | 8.44 | 5.92 | 5.48 | 6.45 | 10.3 | 9.48 | 1.64 | 0.92 | 4.3 | 6.32 | 5.78 | 2.72 |
| QLAPQYTYTQG [FLNA_Y1761_A1764T] | 0.766 | 1.34 | 1.03 | 0.436 | 0.533 | 0.611 | 0.768 | 0.517 | 0.413 | 0.422 | 0.766 | 0.36 | 1.17 | 0.526 | 0.411 | 0.828 |
| QLFGAYLRIHA [BSCL2_Y213_YF] | 1.28 | 0.972 | 0.952 | 1.17 | 1.02 | 1.37 | 2.28 | 0.837 | 0.915 | 0.784 | 2.12 | 0.744 | 0.599 | 0.559 | 0.928 | 1.49 |
| QMVGKYASSYM [AVPR2_Y124_M123K] | 1.02 | 0.654 | 1.21 | 0.336 | 0.379 | 0.717 | 0.452 | 0.266 | 0.401 | 0.529 | 0.736 | 0.786 | 0.475 | 0.459 | 0.29 | 0.626 |
| QMVRMYASSFM [AVPR2_Y124_G122R_YF] | 0.831 | 0.571 | 0.774 | 0.59 | 0.425 | 0.769 | 0.677 | 0.482 | 0.552 | 0.605 | 0.843 | 0.745 | 0.544 | 0.328 | 0.605 | 1.26 |
| QPGTDYKIYRY [FN1_Y1970_L1974R] | 0.734 | 0.516 | 0.791 | 0.383 | 0.468 | 0.968 | 0.882 | 0.618 | 0.555 | 0.468 | 0.866 | 0.742 | 0.499 | 0.527 | 0.583 | 1.02 |
